Data from patent US20180291353A1, “MONOFUNCTIONAL ALDEHYDE AND ALCOHOL DEHYDROGENASES FOR PRODUCTION OF FUELS AND COMMODITY CHEMICALS” (The Regents of the University of California, priority 2015, published 2018).

Experiments:
[1] = substrate: CCCC(=O)SCCNC(=O)CCNC(=O)[C@H](O)C(C)(C)COP(=O)(O)OP(=O)(O)OC[C@H]1O[C@@H](n2cnc3c(N)ncnc32)[C@H](O)[C@@H]1OP(=O)(O)O; experiment: purified protein, by the assay type; conditions: other: 100 μM NADH, 100 mM Tris, 1 mM DTT, pH 7.5, 30° C., mean±s.e. (n=3)
[2] = substrate: CC(=O)SCCNC(=O)CCNC(=O)[C@H](O)C(C)(C)COP(=O)(O)OP(=O)(O)OC[C@H]1O[C@@H](n2cnc3c(N)ncnc32)[C@H](O)[C@@H]1OP(=O)(O)O; experiment: purified protein, by the assay type; conditions: other: 100 μM NADH, 100 mM Tris, 1 mM DTT, pH 7.5, 30° C., mean±s.e. (n=3)
[3] = test system: butanediol and hydroxybutanone production pathway; experiment: Screen of secondary alcohol dehydrogenases in the aldh7-adh2 pathway in E. coli (FIG. 15-17); type: cell-based; conditions: in words; pathway with aldh7-adh2 and acetoacetyl-CoA reductase
Source text: FIG. 16 illustrates the results of a screen of secondary alcohol dehydrogenases when expressed in the pathway described in FIG. 15. The production titers of 4-hydroxy-2-butanone (hydroxybutanone) and 1,3-butanediol (butanediol) when the illustrated secondary alcohol dehydrogenases are expressed in the pathway illustrated in FIG. 15 are shown. Data are mean±s.d. (n=3).
FIG. 17 illustrates how expression of specific proteins in the pathway described in FIG. 15 can control butanediol:hydroxybutanone ratios through pathway design. The production titers of 4-hydroxy-2-butanone (hydroxybutanone) and 1,3-butanediol (butanediol) when the illustrated proteins are expressed in the pathway illustrated in FIG. 15 are shown. Data are mean±s.d. (n=3).
Unless otherwise described, applicable materials and methods as described in this Example are analogous to those described in Example 1.
At least four SADHs enabled butanediol production of 2 g/L with hydroxybutanone production limited to 250 mg/L or less (FIG. 16). This pathway design appears preferable to enforcing specificity through an ADH that will not accept acetoacetaldehyde; acetoacetaldehyde need not be a dead end product and can still be channeled to butanediol production.

[4] = ALDH7 activity toward substrates; type: biochemical; conditions: in words
[5] = test system: n-butanol biosynthetic pathway; experiment: Butanol and ethanol fuel titer in E. coli DH1 expressing the n-butanol pathway with AdhE2 variants or homologs (FIG. 2, FIG. 3); type: cell-based; conditions: E. coli DH1, compared with WT AdhE2
Source text: The fuel titer of butanol in E. coli cells expressing the biosynthetic pathway shown in FIG. 6A with various particular AdhE2 variants incorporating amino acid substitutions from the AdhE2 superfamily is shown. The x-axis labels indicate the particular AdhE2 variant being expressed in the E. coli, with wild-type AdhE2 also shown for comparison. In each figure, E. coli DH1 was transformed with pT5T33-phaA.HBD-crt and pCDF3-ter-AdhE2 variant as indicated. FIG. 2A illustrates the butanol production for AdhE2 variants #76930 to #76978. FIG. 2B illustrates the butanol production for AdhE2 variants #76979 to #77025, and also includes WT AdhE2 (GI 499193180). AdhE2 and variants thereof shown in FIG. 2A and FIG. 2B include SEQ ID NOs: 60-154. […]
. […] Samples were quantified after 3 d of cell culture.
Samples (2 ml) were removed from cell culture and cleared of biomass by centrifugation at 20,817 g for 2 min using an Eppendorf 5417R centrifuge. […] These samples were then analyzed on a Trace GC Ultra (Thermo Scientific) using an HP-5MS column (0.25 mm×30 m, 0.25 μM film thickness, J & W Scientific). The oven program was as follows: 75° C. for 3 min, ramp to 300° C. at 45° C. min^−1, 300° C. for 1 min. n-Butanol was quantified by flame ionization detection (FID) (flow: 350 ml min^−1 air, 35 ml min^−1 H2 and 30 ml min^−1 helium). […]

[6] = test system: butanol production pathway; experiment: Butanol and ethanol production in E. coli MC1.24 (quintuple KO) with bifunctional or monofunctional dehydrogenases (FIG. 5); type: cell-based; conditions: E. coli MC1.24, FIG. 5
Source text: FIG. 5 illustrates genetically engineered improvement of a butanol production pathway composed of monofunctional aldehyde and alcohol dehydrogenases. The fuel titer of either butanol or ethanol in E. coli cells expressing the biosynthetic pathway shown in FIG. 6A with various particular alcohol and/or aldehyde dehydrogenases is shown. Specifically, E. coli MC1.24 (quintuple KO) was transformed with pT533-phaA.HBD, pBBR2-aceE.F.lpd and 1: pCWO.trc-ter-adhE2, 2: pCDF3-aldh16, 3: pCWori-ter-aldh16.CaADH, or 4: pCWO.trc-ter-aldh16.CaADH as indicated.
. The cultures were grown at 37° C. in a rotary shaker (200 r.p.m.) and induced with IPTG (1.0 mM) at OD600=0.35-0.45. At this time, the growth temperature was reduced to 30° C., and the culture flasks were sealed with Parafilm M (Pechiney Plastic Packaging) to prevent product evaporation for aerobic cultures. Anaerobic cultures were sealed and the headspace was sparged with argon for 5 minutes immediately follow induction. Aerobic cultures were unsealed for 10 to 30 min every 24 h then resealed with Parafilm M, and additional glucose (1% (w/v)) was added 1 day post-induction. Samples were quantified after 3 d of cell culture.
Samples (2 ml) were removed from cell culture and cleared of biomass by centrifugation at 20,817 g for 2 min using an Eppendorf 5417R centrifuge. The supernatant or cleared medium sample was then mixed in a 9:1 ratio with an aqueous solution containing the isobutanol internal standard (10,000 mg l^−1). These samples were then analyzed on a Trace GC Ultra (Thermo Scientific) using an HP-5MS column (0.25 mm×30 m, 0.25 μM film thickness, J & W Scientific). The oven program was as follows: 75° C. for 3 min, ramp to 300° C. at 45° C. min^−1, 300° C. for 1 min. n-Butanol was quantified by flame ionization detection (FID) (flow: 350 ml min^−1 air, 35 ml min^−1 H2 and 30 ml min^−1 helium). Samples containing n-butanol levels below 500 mg 1^−1 were requantified after extraction of the cleared medium sample or standard (500 μl) with toluene (500 μl) containing the isobutanol internal standard (100 mg 1^−1) using a Digital Vortex Mixer (Fisher) for 5 min set at 2,000. The organic layer was then quantified using the same GC parameters with a DSQII single-quadrupole mass spectrometer (Thermo Scientific) using single-ion monitoring (m/z 41 and 56) concurrent with full scan mode (m/z 35-80). Samples were quantified relative to a standard curve of 2, 4, 8, 16, 31, 63, 125, 250, 500 mg 1^−1 n-butanol for MS detection or 125, 250, 500, 1,000, 2,000, 4,000, 8,000 mg 1^−1 n-butanol for FID detection. Standard curves were prepared freshly during each run and normalized for injection volume using the internal isobutanol standard (100 or 1,000 mg 1^−1 for MS and FID, respectively). […]

B1: AdhE2-ALDH (aldehyde dehydrogenase domain of bifunctional AdhE2, wild type, GI 499193180, SEQ ID NO: 41) (Clostridium acetobutylicum) (protein)
chain: MKVTNQKELKQKLNELREAQKKFATYTQEQVDKIFKQCAIAAAKERINLAKLAVEETGIGLVEDKIIKNHFAAEYIYNKYKNEKTCGIIDHDDSLGITKVAEPIGIVAAIVPTTNPTSTAIFKSLISLKTRNAIFFSPHPRAKKSTIAAAKLILDAAVKAGAPKNIIGWIDEPSIELSQDLMSEADIILATGGPSMVKAAYSSGKPAIGVGAGNTPAIIDESADIDMAVSSIILSKTYDNGVICASEQSILVMNSIYEKVKEEFVKRGSYILNQNEIAKIKETMFKNGAINADIVGKSAYIIAKMAGIEVPQTTKILIGEVQSVEKSELFSHEKLSPVLAMYKVKDFDEALKKAQRLIELGGSGHTSSLYIDSQNNKDKVKEFGLAMKTSRTFINMPSSQGASGDLYNFAIAPSFTLGCGTWGGNSVSQNVEPKHLLNIKSVAERRENMLWFKVPQKIYFKYGCLRFALKELKDMNKKRAFIVTDKDLFKLGYVNKITKVLDEIDIKYSIFTDIKSDPTIDSVKKGAKEMLNFEPDTIISIGGGSPMDAAKVMHLLYEYPEAEIENLAINFMDIRKRICNFPKLGTKAISVAIPTTAGTGSEATPFAVITNDETGMKYPLTSYELTPNMAIIDTELMLNMPRKLTAATGIDALVHAIEAYVSVMATDYTDELALRAIKMIFKYLPRAYKNGTNDIEAREKMAHASNIAGMAFANAFLGVCHSMAHKLGAMHHVPHGIACAVLIEEVIKYNATDCPTKQTAFPQYKSPNAKRKYAEIAEYLNLKGTSDTEKVTALIEAISKLKIDLSIPQNISAAGINKKDFYNTLDKMSELAFDDQCTTANPRYPLISELKDIYIKSF
[1]
  Km: 10 ± 1 µM
[2]
  Km: 100 ± 10 µM
  kcat: 1.3 s⁻¹
  kcat/Km: 13000 M⁻¹ s⁻¹

B2: SADH1: secondary alcohol dehydrogenase from Pichia kudriavzevii (protein, listed as Pichia kudriavzevii)
chain: MFMKGLTYLKPGIVSWQSIPKPVLKKPTDVIGKVVTTTICGSDLHILKGDVPETTALAATTGHGVVLGHEAIIEIESVGDAVKNFSKGDVCIVSCITSCGKCYYCKRNLQSHCTGHMEGTSGWVFGHEIDGTQAEYVRVPCADYGLYKVPEGVAYEKLLMLSDAIPTSYEIGILNGEVKEGDSVAVVGLGPVGLSALLTAINKKPKQLIAIDMDENRLDLAKQLGATHIINSTNMPNEEVAKKVQEISKDLEPGRESGVDVAIECVGVPPTFELCEDLIASGGTIANVGVHGAKVDLKLQELWIKNCKITTGLVSTYSIPDLLNQVADGSLDPSPIITHHFKFDEFEKAYQVFKDAKNTKAMKIILTP
[3]
  butanediol titer: maximum butanediol titer

B3: ALDH7: monofunctional aldehyde dehydrogenase (protein, listed as Clostridium botulinum)
chain: MERNLSVLSQTNDLKITKRTEGDKSNNKESYLGVFKKVENAITKAIYAQKKLSLYYTKEDRERIIKSIRKATLENKEILAKMIVDETHMGRYEDKILKHELVAKYTPGTEDLITTAWSGDQGLTLVEMSPYGVIGAITPSTNPTETVICNSIGMIAAGDSVVFNGHPGAKKCVAFAVDMINKAVIREGGPENLVTTVENPTMESLNVIMKHPYIKLLCGTGGPGLIKTLLNSGKKAIGAGAGNPPVIVDDSADIDKAAKNIIEGCSFDNNLPCIAEKEVFVFENVANDLIQNMIKNNAVLINENQVSKLLDLVLLERKDETLEYAINKKWVGKDAKLFLDKIGIKASDNVRCIICEVDANHPFVMTELMMPILPIVRVKDVDEAIECAKTAEQRKRHSAYMYSKNIDNLNRFEKEIDTTIFVKNAKSFAGVGFGAEGFTTFTIAGPTGEGITSARNFTRQRRCVLAG
[4]
  activity toward substrates including acetoacetyl-CoA and 3-hydroxybutyryl-CoA: displays activity

B4: ALDH16: monofunctional aldehyde dehydrogenase specific for C4 substrates (protein, listed as Clostridium beijerinckii)
chain: MNKDTLIPTTKDLKVKTNGENINLKNYKDNSSCFGVFENVENAISSAVHAQKILSLHYTKEQREKIITEIRKAALQNKEVLATMILEETHMGRYEDKILKHELVAKYTPGTEDLTTTAWSGDNGLTVVEMSPYGVIGAITPSTNPTETVICNSIGMIAAGNAVVFNGHPCAKKCVAFAVEMINKAIISCGGPENLVTTIKNPTMESLDAIIKHPSIKLLCGTGGPGMVKTLLNSGKKAIGAGAGNPPVIVDDTADIEKAGRSIIEGCSFDNNLPCIAEKEVFVFENVADDLISNMLKNNAVIINEDQVSKLIDLVLQKNNETQEYFINKKWVGKDAKLFLDEIDVESPSNVKCIICEVNANHPFVMTELMMPILPIVRVKDIDEAIKYAKIAEQNRKHSAYIYSKNIDNLNRFEREIDTTIFVKNAKSFAGVGYEAEGFTTFTIAGSTGEGITSARNFTRQRRCVLAG
[5]
  butanol:ethanol ratio: favorable
[6]
  butanol production: 1 g/L
  ethanol production: 0.5 g/L
